# In patent US20250223366A1 (BIOTHEUS, published 2025):
# Substitutions are numbered along the chain they refer to.
# B1: anti-c-MET antibody 136 (antibody, V domains shown)
# VH: EVQLQESGPGLVKPSETLSLTCTVSGGSVTSVNYYWKWIRQPPGKGLEWIGYISYSGNTNYNPSLKSRVTISVDTSKNQFSLKLSSVTAADTAVYYCVRAPYYYMDVWSKGTTVTVSS
# VL: DIVMTQSPSSVSASVGDRVTITCRASQGISSWLAWYQQKPGKAPKLLIYAVSSLQSGVPSRFSGSGSGTDFTLTISSLQPEDFATYFCQQANSFPLTFGGGTKVEIK
# notes: Candidate from yeast display screening, as tested in the ForteBio assay
# B2: anti-c-MET antibody 187 (antibody, V domains shown)
# VH: ELQLQESGPGLVKPSETLSLTCTVSGGSISSSSYYWGWIRQSPGKGLEWIGSRYYSGNTYYNPSLKSRVTMSVDTSKNQFSLKLRSVTAADTAVYYCARQVYDYWRDWGQGALVTVSS
# VL: B1 VL with K45N, V51A, S53N, Q55P, D70V, F87Y, A91S
# notes: as for B1
# B3: Amivantamab analog (bispecific antibody, human IgG1, kappa)
# anti-EGFR heavy chain (EGFR-1 Fc): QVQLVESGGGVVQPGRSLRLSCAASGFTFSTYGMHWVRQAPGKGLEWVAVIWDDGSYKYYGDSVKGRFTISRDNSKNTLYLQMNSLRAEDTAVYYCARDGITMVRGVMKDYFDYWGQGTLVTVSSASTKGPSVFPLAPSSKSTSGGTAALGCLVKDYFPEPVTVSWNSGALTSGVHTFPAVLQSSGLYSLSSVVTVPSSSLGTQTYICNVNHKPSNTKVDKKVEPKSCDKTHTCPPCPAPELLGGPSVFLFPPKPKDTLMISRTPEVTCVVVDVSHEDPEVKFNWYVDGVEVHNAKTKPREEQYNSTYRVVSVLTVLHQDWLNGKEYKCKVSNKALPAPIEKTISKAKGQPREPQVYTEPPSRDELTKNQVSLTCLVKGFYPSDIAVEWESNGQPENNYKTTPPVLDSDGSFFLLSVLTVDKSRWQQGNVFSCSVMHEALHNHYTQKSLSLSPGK
# anti-EGFR light chain: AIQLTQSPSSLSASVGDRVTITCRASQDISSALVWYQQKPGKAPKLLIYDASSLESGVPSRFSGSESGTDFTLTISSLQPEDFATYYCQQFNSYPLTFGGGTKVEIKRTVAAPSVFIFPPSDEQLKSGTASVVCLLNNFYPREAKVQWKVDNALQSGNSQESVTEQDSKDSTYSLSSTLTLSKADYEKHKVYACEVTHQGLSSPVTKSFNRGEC
# anti-cMet control heavy chain (cMet-2 Fc): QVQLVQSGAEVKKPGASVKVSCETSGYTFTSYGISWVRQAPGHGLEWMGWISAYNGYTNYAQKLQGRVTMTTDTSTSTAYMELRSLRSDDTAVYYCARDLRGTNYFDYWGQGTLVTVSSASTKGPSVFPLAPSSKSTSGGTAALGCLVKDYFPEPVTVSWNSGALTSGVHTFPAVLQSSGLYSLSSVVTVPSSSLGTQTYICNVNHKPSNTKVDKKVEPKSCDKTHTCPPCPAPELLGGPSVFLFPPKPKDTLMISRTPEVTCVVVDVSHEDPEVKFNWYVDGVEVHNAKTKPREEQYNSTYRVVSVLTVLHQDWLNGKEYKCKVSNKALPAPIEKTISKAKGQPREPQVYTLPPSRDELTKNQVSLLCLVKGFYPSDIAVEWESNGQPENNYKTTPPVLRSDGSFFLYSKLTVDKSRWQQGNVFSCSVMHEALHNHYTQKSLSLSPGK
# anti-cMet control light chain: DIQMTQSPSSVSASVGDRVTITCRASQGISNWLAWFQHKPGKAPKLLIYAASSLLSGVPSRFSGSGSGTDFTLTISSLQPEDFATYYCQQANSFPITFGQGTRLEIKRTVAAPSVFIFPPSDEQLKSGTASVVCLLNNFYPREAKVQWKVDNALQSGNSQESVTEQDSKDSTYSLSSTLTLSKADYEKHKVYACEVTHQGLSSPVTKSFNRGEC
# notes: also called control antibody; control molecule Amivantamab
# B4: EGFRxMET-136 (bispecific antibody, human IgG1, kappa)
# heavy 1: not shown
# light 1: not shown
# heavy 2: not shown
# light 2: DIVMTQSPSSVSASVGDRVTITCRASQGISSWLAWYQQKPGKAPKLLIYAVSSLQSGVPSRFSGSGSGTDFTLTISSLQPEDFATYFCQQANSFPLTFGGGTKVEIKRTVAAPSVFIFPPSDEQLKSGTASVVCLLNNFYPREAKVQWKVDNALQSGNSQESVTEQDSKDSTYSLSSTLTLSKADYEKHKVYACEVTHQGLSSPVTKSFNRGEC
# notes: 1+1 heterodimeric IgG1-type bispecific
# B5: EGFRxMET-187 Afu (bispecific antibody, human IgG1, kappa)
# heavy 1: not shown
# light 1: not shown
# heavy 2: not shown
# light 2: B4 light 2 with K45N, V51A, S53N, Q55P, D70V, F87Y, A91S
# modifications: afucosylated glycan
# B6: EGFRxMET-136 Afu (bispecific antibody, human IgG1, kappa)
# heavy 1: not shown
# light 1: B4 light 2 with T129R, T178R, T180Q
# heavy 2: not shown
# light 2: DIQLTQSPSSLSASVGDRVTITCRASQDISSALVWYQQKPGKAPKLLIYDASSLESGVPSRFSGSESGTDFTLTISSLQPEDFATYYCQQFNSYPLTFGGGTKVEIKRTVAAPSVFIFPPSDEELKSGTASVQCLLNNFYPREAKVQWKVDNALQSGNSQESVTEQDSKDSTYSLSSELTLSKADYEKHKVYACEVTHQGLSSPVTKSFNRGEC
# modifications: afucosylated glycan
# B7: EGFRxMET-187 (bispecific antibody, human IgG1, kappa)
# heavy 1: not shown
# light 1: not shown
# heavy 2: not shown
# light 2: B4 light 2 with K45N, V51A, S53N, Q55P, D70V, F87Y, A91S
# notes: as for B4
# What was measured:
# monkey c-MET protein = target: T1, monkey c-MET protein (monkey, UniProt A0A2K5UM36 25-932); assay: ForteBio (BLI) affinity assay, monkey c-Met protein
# T1 construct: The construct is not described
# T1 sequence (A0A2K5UM36 entry or part of it limits assumed): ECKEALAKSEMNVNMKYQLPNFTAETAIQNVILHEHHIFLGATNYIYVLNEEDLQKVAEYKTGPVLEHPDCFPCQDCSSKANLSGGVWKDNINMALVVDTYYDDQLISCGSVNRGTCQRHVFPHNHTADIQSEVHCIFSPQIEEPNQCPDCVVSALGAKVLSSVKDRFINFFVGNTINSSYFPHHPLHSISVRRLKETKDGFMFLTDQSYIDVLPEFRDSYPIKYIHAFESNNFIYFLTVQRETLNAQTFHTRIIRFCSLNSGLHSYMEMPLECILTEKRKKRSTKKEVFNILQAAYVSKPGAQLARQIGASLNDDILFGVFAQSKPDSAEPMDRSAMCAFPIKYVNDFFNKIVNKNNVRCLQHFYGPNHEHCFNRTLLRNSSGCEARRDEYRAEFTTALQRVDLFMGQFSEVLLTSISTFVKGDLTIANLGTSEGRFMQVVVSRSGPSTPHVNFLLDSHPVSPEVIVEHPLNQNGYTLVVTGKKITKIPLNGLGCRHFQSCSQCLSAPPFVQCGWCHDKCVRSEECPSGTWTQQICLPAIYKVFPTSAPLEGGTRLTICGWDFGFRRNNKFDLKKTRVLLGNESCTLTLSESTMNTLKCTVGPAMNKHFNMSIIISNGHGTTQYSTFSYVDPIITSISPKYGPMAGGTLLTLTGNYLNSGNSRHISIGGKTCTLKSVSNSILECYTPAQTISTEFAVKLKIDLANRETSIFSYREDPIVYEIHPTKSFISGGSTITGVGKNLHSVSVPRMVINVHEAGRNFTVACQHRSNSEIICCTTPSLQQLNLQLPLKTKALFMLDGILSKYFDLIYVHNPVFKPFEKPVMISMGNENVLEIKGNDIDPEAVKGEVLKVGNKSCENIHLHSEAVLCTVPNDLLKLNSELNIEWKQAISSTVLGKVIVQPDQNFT
# Method: (§1) After the antibodies were prepared, the ForteBio affinity assay was performed according to the reported method (Estep, P et al., Determination of antibody-antigen affinity and epitope binding based on high-throughput methods. MAbs, 2013.5(2): p. 270-8).
# human c-MET protein = target: T2, human c-MET protein (human, UniProt P08581 25-932); assay: ForteBio (BLI) affinity assay, human c-Met protein
# T2 construct: The construct is not described; also called cellular mesenchymal epithelial transition factor (c-Met) antigen
# T2 sequence (P08581 25-932 limits assumed): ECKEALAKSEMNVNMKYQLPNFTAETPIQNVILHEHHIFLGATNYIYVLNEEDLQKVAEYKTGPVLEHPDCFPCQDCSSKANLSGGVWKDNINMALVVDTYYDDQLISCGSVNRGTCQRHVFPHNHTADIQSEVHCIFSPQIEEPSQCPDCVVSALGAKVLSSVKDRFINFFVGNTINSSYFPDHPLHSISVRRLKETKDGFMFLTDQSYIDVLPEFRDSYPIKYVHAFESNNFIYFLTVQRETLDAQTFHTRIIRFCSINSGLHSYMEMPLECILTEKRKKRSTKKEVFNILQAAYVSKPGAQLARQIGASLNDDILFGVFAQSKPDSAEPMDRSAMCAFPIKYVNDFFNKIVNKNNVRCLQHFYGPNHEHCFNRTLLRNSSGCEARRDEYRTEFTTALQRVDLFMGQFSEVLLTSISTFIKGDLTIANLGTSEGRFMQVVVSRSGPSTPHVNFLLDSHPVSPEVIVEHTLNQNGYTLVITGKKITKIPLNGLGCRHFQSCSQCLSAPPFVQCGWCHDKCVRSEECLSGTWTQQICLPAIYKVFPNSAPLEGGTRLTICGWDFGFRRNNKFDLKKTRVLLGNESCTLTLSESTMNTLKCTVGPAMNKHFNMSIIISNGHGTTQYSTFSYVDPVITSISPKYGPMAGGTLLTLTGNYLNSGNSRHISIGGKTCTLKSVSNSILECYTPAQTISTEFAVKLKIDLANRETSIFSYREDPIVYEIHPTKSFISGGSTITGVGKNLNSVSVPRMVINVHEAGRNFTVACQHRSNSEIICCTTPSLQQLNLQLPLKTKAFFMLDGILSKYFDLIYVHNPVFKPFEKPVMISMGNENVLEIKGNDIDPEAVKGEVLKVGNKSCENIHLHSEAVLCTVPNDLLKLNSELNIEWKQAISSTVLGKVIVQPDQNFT
# Method: as §1
# [1] = target: T3, EGFR expressed on H292 cells (human, UniProt P00533 25-1210); assay: flow cytometry on H292 cells; antibody titrated, then 100 nM Biotin-h.EGF as the blocked ligand, detected with Streptavidin-FITC
# T3 construct: whole, on cells; H292 cells also express c-Met; also called epidermal growth factor receptor
# Method: (§2) H292 cells, which were human non-small cell lung cancer cells purchased from Procell, were capable of expressing EGFR and c-Met receptors. H292 cells were expanded to a suitable density, digested and detached from the cell culture flask, resuspended to 1×10⁶ cells/ml, added to a 96-well flow plate, 100 μL per well, and centrifuged for later use. The antibody to be tested was subjected to 3-fold dilution with PBS, starting from 200 nM, and the diluted sample was added to the 96-well flow plate with cells, 100 μL/well, and incubated at 25° C. for 60 min. […] Streptavidin-FITC (purchased from Jackson) was diluted 100 times with PBS and added to the plate, 100 µL/well, incubated at 4° C. for 30 min, and washed twice with PBS. 100 μL/well of PBS was added to resuspend the cells, then the cells were detected on a CytoFlex (Beckman) flow cytometer, and the corresponding MFI was calculated.
# [2] = target: T3, EGFR expressed on H292 cells; assay: flow cytometry on H292 cells, blocking of biotin-h.EGF (100 nM) binding to EGFR; EGFRxMET-136; blocking of EGF on H292 cells
# Method: as §2
# [3] = target: T4, EGFR and c-Met receptors co-expressed on A375 or H292 cells (human, UniProt P00533 25-1210; P08581 25-1390); assay: flow cytometry, binding to H292 cells (high EGFR and c-Met expression)
# T4 construct: whole, on cells; Not a complex; also called EGFR and c-Met positive tumor cells
# Excerpt: (§3) A375 cells were human malignant melanoma cells and purchased from Addexbio, which were capable of low expression of EGFR and c-Met receptors. H292 cells were human lung adenocarcinoma cells and purchased from procell, which were capable of high expression of EGFR and c-Met receptors. HCC827 cells were human non-small cell lung cancer cells and purchased from the Cell Bank of the Chinese Academy of Sciences, which were capable of high expression of EGFR and c-Met receptors. The expanded cells were adjusted to an appropriate cell density, and added to a 96-well flow plate. After centrifugation, the gradiently diluted samples to be tested were added and incubated at 4° C. for 1 hour. The cells were washed twice with PBS, then a fluorescent secondary antibody, diluted to an appropriate concentration, was added, incubated at 4° C. for 30 min, and washed twice with PBS. The cells were resuspended by PBS, and detected on a CytoFlex flow cytometer, and corresponding MFI was calculated.
# [4] = target: T4, EGFR and c-Met receptors co-expressed …; assay: flow cytometry, binding to A375 cells (low EGFR and c-Met expression)
# Excerpt: as §3
# [5] = target: T4, EGFR and c-Met receptors co-expressed …; assay: flow cytometry, binding to A375 cells (low EGFR and c-Met expression); A375 cells
# Excerpt: as §3
# [6] = target: T3, EGFR expressed on H292 cells; assay: flow cytometry on H292 cells, blocking of biotin-h.EGF (100 nM) binding to EGFR; EGFRxMET-187; blocking of EGF on H292 cells
# Method: as §2
binder,measurement,setting,value
B1,Kd,monkey c-MET protein,1.16 nM
same,koff,monkey c-MET protein,0.000426 s⁻¹
same,kon,monkey c-MET protein,369000 M⁻¹ s⁻¹
same,Kd,human c-MET protein,0.0293 nM
same,koff,human c-MET protein,6.71e-06 s⁻¹
same,kon,human c-MET protein,229000 M⁻¹ s⁻¹
B2,Kd,monkey c-MET protein,2.92 nM
same,koff,monkey c-MET protein,0.000947 s⁻¹
same,kon,monkey c-MET protein,324000 M⁻¹ s⁻¹
same,Kd,human c-MET protein,1.68 nM
same,koff,human c-MET protein,0.000369 s⁻¹
same,kon,human c-MET protein,220000 M⁻¹ s⁻¹
B3,IC50,[1],2.64 nM
B4,IC50,[2],3.15 nM
B5,EC50,[3],1.46 nM
same,EC50,[4],1.05 nM
B6,EC50,[5],1.35 nM
B7,IC50,[6],2.9 nM
